We go through two substances from PMC7090928.

Test [1] has as its target mCherry-EB3 full length (UniProt Q9UPY8).
Test [2] has the same target. In words: fluorescence correlation spectroscopy; 15 nM His-GFP-MTLS and 200 nM EB3 on dynamic MTs, no GUVs; peak intensity at passing MT tips against solution; 60 sites assumed in 6 dimer lengths, 1:1 EB3:MTLS assumed.
The target is the same in test [3]. The source holds these as a separate data set.
The target is the same in test [4]. In words: single-molecule TIRF microscopy (dwell times and binding events on microtubules); 0.12 nM His-GFP-MTLS, 50 ms/frame, 200 nM mCherry-EB3 as tracer of plus ends; dwell times fitted with an exponential; MT tip taken as 200 nm long.
The target in test [5] is dynamic microtubules (porcine brain tubulin) (porcine). In words: speed of membrane tube spreading on microtubules compared with a one-step model; His-GFP-MTLS bound to GUV membrane, no EB3; the attachment rate was chosen by comparing model curves for 8, 16 and 26 s^-1 with experimental data.
Sequence of dynamic microtubules (porcine brain tubulin) (porcine) (P68363 whole entry, chain 1 of 2): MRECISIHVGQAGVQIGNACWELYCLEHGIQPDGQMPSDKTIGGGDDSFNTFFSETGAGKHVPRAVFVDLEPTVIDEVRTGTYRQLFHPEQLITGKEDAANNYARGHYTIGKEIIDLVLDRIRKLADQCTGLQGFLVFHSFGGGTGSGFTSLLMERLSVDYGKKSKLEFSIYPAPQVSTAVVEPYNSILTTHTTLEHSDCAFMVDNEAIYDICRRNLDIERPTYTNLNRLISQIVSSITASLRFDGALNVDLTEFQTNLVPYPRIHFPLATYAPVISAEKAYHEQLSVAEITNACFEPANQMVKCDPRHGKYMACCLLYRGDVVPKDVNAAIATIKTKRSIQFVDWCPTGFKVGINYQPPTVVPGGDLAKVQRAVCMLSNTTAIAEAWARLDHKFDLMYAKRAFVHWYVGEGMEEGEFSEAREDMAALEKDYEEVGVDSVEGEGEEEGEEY
Sequence of dynamic microtubules (porcine brain tubulin) (porcine) (P02554 whole entry, chain 2 of 2, further chain): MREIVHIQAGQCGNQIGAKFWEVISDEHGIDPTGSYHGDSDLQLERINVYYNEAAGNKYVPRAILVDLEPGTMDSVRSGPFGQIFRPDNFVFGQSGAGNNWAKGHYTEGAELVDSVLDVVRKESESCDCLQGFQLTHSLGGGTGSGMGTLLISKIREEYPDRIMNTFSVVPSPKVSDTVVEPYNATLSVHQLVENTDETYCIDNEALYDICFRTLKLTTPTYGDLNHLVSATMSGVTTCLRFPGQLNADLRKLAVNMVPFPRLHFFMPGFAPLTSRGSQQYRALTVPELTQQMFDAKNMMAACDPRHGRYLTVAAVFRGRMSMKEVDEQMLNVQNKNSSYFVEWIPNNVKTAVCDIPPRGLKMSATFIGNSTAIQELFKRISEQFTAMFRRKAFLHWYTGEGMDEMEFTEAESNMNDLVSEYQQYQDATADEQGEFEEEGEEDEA

Sequence of UniProt Q9UPY8 (Q9UPY8 whole entry): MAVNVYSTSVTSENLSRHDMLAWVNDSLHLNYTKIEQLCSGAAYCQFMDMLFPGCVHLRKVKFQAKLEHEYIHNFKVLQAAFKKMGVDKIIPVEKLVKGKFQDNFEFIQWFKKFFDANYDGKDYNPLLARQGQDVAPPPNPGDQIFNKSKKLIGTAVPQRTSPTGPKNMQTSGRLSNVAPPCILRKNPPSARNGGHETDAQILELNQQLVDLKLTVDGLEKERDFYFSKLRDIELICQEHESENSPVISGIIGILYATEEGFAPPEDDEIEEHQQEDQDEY

Take “Bio-mCherry-MTLS (from UniProt Q03001 7528-7570)”: the duration of the first positive displacement of Bio-mCherry-MTLS-coated beads at growing MT tips with 100 nM EB3 (most events shorter than 1 s without EB3) with mCherry-EB3 full length [1] is 15 s.

As for “His-GFP-MTLS (from UniProt Q03001 7528-7570)”, the maximum probability of being bound to the EB3-bound MT tip in the test with mCherry-EB3 full length [2] worked out at 0.46. In the test with mCherry-EB3 full length [3], this substance yielded a tubulation of GUVs on dynamic MTs at 200 nM EB3 and 15 nM His-GFP-MTLS of 90%. Besides, the fold association rate at MT tips (with 200 nM mCherry-EB3) over the on-rate at the MT shaft with mCherry-EB3 full length [4] is 2.5 fold. Besides, the k on-m (estimated attachment rate of membrane-bound His-GFP-MTLS to the MT lattice, no EB3) in test [5] is 16 s⁻¹.
